Patent publication US20090131309A1, “ICA512 COUPLES INSULIN SECRETION AND GENE EXPRESSION IN BETA-CELLS” (Technische Universität Dresden Medizinizche Fakultät Carl …, priority 2004, published 2009)

T1: PIASy (Mus musculus, UniProt Q9JM05)
T1 construct: made in house; host or cells: in-vitro transcription-translation (T7 coupled system, Promega)
T1 sequence (Q9JM05 2-507): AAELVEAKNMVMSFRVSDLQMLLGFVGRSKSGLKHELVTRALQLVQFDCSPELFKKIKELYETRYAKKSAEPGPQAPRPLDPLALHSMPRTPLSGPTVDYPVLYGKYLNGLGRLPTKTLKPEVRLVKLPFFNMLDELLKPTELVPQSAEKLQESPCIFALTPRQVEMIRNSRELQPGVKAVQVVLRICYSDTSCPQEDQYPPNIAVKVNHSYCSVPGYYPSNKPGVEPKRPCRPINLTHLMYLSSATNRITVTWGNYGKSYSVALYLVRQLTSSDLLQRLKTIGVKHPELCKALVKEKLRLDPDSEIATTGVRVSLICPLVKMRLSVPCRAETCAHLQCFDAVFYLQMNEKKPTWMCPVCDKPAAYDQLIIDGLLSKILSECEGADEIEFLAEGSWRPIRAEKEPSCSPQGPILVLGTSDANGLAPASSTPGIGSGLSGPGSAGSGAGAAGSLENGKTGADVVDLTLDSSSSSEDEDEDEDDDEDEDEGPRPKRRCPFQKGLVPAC

B1: GST-ICA512 (700-979): GST fusion which only contains the PTP domain (protein)
chain: EDHLRNRDRLAKEWQALCAYQAEPNTCATAQGEGNIKKNRHPDFLPYDHARIKLKVESSPSRSDYINASPIIEHDPRMPAYIATQGPLSHTIADFWQMVWESGCTVIVMLTPLVEDGVKQCDRYWPDEGASLYHVYEVNLVSEHIWCEDFLVRSFYLKNVQTQETRTLTQFHFLSWPAEGTPASTRPLLDFRRKVNKCYRGRSCPIIVHCSDGAGRTGTYILIDMVLNRMAKGVKEIDIAATLEHVRDQRPGLVRSKDQFEFALTAVAEEVNAILKALPQ
modifications: left off: a dimerising Fc or GST
notes: GST fusion which only contains the PTP domain
B2: GST-ICA512 (601-979): GST fusion encompassing the entire ICA512 cytoplasmic domain (protein)
chain: RQHARQQDKERLAALGPEGAHGDTTFEYQDLCRQHMATKSLFNRAEGPPEPSRVSSVSSQFSDAAQASPSSHSSTPSWCEEPAQANMDISTGHMILAYMEDHLRNRDRLAKEWQALCAYQAEPNTCATAQGEGNIKKNRHPDFLPYDHARIKLKVESSPSRSDYINASPIIEHDPRMPAYIATQGPLSHTIADFWQMVWESGCTVIVMLTPLVEDGVKQCDRYWPDEGASLYHVYEVNLVSEHIWCEDFLVRSFYLKNVQTQETRTLTQFHFLSWPAEGTPASTRPLLDFRRKVNKCYRGRSCPIIVHCSDGAGRTGTYILIDMVLNRMAKGVKEIDIAATLEHVRDQRPGLVRSKDQFEFALTAVAEEVNAILKALPQ
modifications: left off: a dimerising Fc or GST
notes: GST fusion encompassing the entire ICA512 cytoplasmic domain
B3: GST-ICA512 (800-979): GST fusion which lacks the first 100 residues of the PTP domain (protein)
chain: ESGCTVIVMLTPLVEDGVKQCDRYWPDEGASLYHVYEVNLVSEHIWCEDFLVRSFYLKNVQTQETRTLTQFHFLSWPAEGTPASTRPLLDFRRKVNKCYRGRSCPIIVHCSDGAGRTGTYILIDMVLNRMAKGVKEIDIAATLEHVRDQRPGLVRSKDQFEFALTAVAEEVNAILKALPQ
modifications: left off: a dimerising Fc or GST
notes: GST fusion which lacks the first 100 residues of the PTP domain

Target: T1, PIASy
Experiment: GST pull-down assay with PIASy
Format: binding
Details: in-vitro transcribed and translated 35S-labeled partner, glutathione-sepharose beads
Description: GST-Pull Down Assays. ICA512 (601-979) cDNA in pET28a (invitrogen) (29) was in vitro transcribed and translated using the T7/coupled transcription-translation system (Promega, Madison, Wis.) according to manufacture's instructions. PIAS1-GST and PIASy-GST (a kind gift of Rudolf Grosschedl) were expressed in bacteria as previously described (21, 30). Next, [^35S]-methionine-labeled ICA512 (601-979) was incubated overnight at 4° C. in GST binding buffer (120 mM NaCl, 50 mM Tris pH8, 0.25% Nonidet P-40, 1 mM DTT, 1 mM PMSF) with GST-fusion proteins or GST alone coupled to glutathione-sepharose beads (Amersham, Freiburg, Germany). Beads were washed five times with binding buffer, and then eluted with 10 mM reduced glutathione. The eluate was subjected to SDS-PAGE and analyzed by autoradiography.
Pull-down assays. GST-ICA512 (601-979), GST-ICA512 (700-979), and GST-ICA512 (800-979) were bacterially expressed as described^26. [^35S]-methionine-PIASy, -ICA512 (601-979), -p53 and -firefly luciferase were in-vitro transcribed and translated with the T7/coupled transcription-translation system (Promega) according to the manufacturer's instructions. [^35S]-PIASy was incubated with GST-ICA512 proteins or GST, while [^35S]-ICA512 (601-979), [^35S]-p53 and [^35S]-firefly luciferase were incubated with MBP-Ubc9. Proteins were collected with glutathione-(Amersham) or amylose-(New England Biolabs) sepharose beads as described^38. Proteins eluted from beads with glutathione or maltose were analyzed by SDS-PAGE and autoradiography with a phosphoimager BAS1800 II (Fuji).

Molecule	binding to PIASy in pull-down assay
B1	bound
B2	bound
B3	did not bind
